Data from patent US20240083948A1 (ADVANCED TECHNOLOGIES FOR NOVEL THERAPEUTICS, published 2024).

Columns and labels:
Assay in all cases: cell-based or functional assay
AKT1 (PKB alpha), active = AKT1 (PKB alpha), active (UniProt P31749 1-480, limits assumed)
AKT2 (PKB beta) = AKT2 (PKB beta) (UniProt P31751 1-481, limits assumed)
PI3Kδ = target: T1, PI3Kδ (UniProt O00329 1-1044, limits assumed)
T1 sequence (looked up): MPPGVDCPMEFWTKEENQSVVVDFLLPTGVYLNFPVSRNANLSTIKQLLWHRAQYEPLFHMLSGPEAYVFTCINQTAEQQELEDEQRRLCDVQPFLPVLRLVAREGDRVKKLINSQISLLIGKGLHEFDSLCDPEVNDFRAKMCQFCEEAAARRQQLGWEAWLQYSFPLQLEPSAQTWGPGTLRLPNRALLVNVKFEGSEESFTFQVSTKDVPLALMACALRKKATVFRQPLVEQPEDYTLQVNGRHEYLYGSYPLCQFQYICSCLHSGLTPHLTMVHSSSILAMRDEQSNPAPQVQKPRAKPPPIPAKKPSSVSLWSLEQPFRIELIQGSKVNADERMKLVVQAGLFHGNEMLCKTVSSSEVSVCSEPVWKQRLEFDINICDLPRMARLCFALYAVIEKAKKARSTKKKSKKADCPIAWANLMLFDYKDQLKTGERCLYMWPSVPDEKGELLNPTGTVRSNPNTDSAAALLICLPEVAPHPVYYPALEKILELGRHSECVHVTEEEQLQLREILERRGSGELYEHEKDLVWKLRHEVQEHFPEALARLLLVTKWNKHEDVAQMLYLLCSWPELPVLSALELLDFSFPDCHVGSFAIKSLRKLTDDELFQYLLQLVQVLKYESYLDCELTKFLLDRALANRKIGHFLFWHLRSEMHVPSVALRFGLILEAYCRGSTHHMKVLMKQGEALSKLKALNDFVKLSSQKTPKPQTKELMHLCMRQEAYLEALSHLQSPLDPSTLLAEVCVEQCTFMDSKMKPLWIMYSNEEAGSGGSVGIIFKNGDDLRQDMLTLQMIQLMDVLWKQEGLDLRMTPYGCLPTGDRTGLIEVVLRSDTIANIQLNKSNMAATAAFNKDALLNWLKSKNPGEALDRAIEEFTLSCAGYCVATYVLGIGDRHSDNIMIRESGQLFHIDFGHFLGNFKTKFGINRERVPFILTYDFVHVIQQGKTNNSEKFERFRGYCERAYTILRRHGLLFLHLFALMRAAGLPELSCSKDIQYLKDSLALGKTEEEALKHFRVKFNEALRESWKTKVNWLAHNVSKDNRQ

SGK (SGK1) = target: T2, SGK (SGK1) (UniProt O00141 60-431, limits assumed)
T2 sequence (looked up): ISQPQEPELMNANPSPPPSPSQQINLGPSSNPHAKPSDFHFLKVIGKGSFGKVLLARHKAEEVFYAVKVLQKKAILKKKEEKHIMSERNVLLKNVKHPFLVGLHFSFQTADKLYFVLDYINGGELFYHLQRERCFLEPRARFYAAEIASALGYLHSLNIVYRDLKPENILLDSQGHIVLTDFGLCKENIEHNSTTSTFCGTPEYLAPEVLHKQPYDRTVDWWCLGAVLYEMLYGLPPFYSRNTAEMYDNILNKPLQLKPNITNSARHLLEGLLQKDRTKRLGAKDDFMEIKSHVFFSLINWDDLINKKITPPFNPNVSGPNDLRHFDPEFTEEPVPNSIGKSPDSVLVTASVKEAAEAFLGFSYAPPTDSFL

PAK3 = PAK3 (UniProt O75914 1-559, limits assumed)
Sequence of PAK3 (O75914 whole entry): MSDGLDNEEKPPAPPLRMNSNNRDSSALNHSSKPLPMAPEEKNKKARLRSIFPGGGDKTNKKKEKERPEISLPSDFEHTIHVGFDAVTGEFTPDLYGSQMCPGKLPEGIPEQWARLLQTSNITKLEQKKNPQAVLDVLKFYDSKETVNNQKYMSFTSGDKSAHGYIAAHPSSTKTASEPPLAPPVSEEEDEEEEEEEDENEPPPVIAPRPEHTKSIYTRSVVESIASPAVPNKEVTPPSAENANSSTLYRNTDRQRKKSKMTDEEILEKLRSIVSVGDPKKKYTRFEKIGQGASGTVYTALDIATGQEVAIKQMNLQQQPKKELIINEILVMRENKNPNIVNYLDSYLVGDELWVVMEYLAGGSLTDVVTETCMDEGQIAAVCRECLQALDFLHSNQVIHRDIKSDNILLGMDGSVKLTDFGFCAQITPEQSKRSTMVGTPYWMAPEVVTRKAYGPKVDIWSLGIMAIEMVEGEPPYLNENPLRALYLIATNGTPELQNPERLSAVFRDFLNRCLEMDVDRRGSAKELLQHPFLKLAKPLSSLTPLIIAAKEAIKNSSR

Abl = Abl (UniProt P00519 27-1130, limits assumed)
Sequence of Abl (P00519 27-1130 limits assumed): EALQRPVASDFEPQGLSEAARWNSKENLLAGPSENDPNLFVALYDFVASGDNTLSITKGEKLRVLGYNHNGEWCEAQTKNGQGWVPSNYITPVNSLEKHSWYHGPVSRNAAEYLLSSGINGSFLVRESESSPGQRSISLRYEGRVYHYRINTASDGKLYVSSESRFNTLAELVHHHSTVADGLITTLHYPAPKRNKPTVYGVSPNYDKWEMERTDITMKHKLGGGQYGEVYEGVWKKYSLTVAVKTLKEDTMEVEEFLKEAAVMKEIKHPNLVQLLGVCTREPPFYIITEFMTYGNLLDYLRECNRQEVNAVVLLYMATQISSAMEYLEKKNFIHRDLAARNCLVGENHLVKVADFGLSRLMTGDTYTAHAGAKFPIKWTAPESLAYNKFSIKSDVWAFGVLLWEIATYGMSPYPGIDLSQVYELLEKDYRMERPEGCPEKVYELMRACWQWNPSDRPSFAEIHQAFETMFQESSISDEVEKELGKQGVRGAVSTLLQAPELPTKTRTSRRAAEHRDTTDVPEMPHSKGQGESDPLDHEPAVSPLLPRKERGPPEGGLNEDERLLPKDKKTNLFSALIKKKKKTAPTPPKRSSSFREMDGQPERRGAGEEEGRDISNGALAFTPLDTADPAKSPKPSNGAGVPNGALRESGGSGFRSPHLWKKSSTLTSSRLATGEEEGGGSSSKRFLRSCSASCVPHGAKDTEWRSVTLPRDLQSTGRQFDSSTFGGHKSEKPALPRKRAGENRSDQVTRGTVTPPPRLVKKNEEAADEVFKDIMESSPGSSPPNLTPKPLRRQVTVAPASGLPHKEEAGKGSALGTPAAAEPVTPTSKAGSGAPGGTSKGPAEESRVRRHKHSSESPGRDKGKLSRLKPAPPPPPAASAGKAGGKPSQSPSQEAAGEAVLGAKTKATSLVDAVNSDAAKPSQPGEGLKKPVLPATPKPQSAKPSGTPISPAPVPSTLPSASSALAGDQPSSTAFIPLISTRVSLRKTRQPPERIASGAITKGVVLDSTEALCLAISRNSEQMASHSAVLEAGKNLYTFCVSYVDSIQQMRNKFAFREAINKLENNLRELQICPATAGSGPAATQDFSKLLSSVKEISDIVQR

RPS6KB1 (p70S6K) = RPS6KB1 (p70S6K) (UniProt P23443 1-421, limits assumed)
Sequence of RPS6KB1 (p70S6K) (P23443 1-421 limits assumed): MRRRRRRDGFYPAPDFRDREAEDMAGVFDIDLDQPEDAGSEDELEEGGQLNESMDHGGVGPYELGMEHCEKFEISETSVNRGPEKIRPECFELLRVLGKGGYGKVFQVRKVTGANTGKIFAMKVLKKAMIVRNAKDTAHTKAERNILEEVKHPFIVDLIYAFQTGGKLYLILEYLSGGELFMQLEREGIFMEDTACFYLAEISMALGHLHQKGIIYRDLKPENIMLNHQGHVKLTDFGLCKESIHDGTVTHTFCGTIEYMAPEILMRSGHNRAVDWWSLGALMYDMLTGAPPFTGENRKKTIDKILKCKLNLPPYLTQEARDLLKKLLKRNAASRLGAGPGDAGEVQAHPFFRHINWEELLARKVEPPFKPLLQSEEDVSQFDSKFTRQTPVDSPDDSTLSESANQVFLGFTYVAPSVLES

TrkB = TrkB (UniProt Q16620 455-822, limits assumed)
Sequence of TrkB (Q16620 455-822 limits assumed): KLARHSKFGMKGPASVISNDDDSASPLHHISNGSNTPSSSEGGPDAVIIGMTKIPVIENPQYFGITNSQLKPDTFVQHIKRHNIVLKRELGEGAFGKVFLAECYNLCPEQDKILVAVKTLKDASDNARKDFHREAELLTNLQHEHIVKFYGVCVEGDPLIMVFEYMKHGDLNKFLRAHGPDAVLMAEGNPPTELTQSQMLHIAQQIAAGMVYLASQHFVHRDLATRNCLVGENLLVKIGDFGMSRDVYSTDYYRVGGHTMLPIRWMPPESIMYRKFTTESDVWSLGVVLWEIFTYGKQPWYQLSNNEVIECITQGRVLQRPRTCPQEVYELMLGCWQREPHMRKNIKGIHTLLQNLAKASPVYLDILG

JAK3 = JAK3 (UniProt P52333 781-1124, limits assumed)
Sequence of JAK3 (P52333 781-1124 limits assumed): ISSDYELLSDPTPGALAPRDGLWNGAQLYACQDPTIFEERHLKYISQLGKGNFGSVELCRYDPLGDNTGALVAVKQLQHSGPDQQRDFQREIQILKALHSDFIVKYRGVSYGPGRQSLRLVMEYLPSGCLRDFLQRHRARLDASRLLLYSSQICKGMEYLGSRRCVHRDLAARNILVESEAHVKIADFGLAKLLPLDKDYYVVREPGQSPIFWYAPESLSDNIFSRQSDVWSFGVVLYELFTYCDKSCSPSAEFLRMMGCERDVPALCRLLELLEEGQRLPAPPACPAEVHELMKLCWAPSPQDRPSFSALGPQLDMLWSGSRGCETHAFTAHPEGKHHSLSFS

Sequence of AKT2 (PKB beta) (P31751 whole entry): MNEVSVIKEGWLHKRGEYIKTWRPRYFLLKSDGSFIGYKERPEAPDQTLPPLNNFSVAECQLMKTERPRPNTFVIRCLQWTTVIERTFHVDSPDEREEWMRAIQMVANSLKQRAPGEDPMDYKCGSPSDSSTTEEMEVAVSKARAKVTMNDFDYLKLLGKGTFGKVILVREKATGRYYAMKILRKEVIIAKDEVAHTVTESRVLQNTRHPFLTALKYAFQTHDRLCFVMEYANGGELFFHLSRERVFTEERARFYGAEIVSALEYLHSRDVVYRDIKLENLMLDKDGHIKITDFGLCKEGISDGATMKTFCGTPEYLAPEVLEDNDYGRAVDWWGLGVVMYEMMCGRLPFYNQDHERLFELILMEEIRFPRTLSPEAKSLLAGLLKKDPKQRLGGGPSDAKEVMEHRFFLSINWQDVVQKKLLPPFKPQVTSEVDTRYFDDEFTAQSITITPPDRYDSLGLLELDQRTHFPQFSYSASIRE
Sequence of AKT1 (PKB alpha), active (P31749 whole entry): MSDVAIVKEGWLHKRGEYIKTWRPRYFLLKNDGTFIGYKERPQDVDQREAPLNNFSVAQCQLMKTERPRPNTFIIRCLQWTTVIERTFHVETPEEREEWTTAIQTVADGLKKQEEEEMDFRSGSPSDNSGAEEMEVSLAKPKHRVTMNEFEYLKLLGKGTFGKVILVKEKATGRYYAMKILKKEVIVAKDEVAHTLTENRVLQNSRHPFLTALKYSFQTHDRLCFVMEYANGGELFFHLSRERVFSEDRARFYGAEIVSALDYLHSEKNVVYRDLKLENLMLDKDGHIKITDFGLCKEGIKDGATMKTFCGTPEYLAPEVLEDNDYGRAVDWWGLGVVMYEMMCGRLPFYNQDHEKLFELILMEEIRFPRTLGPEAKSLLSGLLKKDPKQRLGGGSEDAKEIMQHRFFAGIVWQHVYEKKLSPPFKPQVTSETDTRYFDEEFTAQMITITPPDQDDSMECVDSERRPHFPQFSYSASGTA

B1: ZaTa peptide (Ala-Lys-Arg-Val-Lys-Gly-Arg-Thr-Trp-Thr-Leu-Cys-Gly-Thr-Pro-Glu-Tyr) (peptide)
peptide: AKRVKGRTWTLCGTPEY
Question: What does the source list for B1?
Answer: IC50, AKT1 in vitro catalytic activity (incorporation of γ-32P into Ser-21 GSK-3β substrate peptide) (AKT1 (PKB alpha), active): ~100 nM; in vitro kinase assay at ten times the IC50 for AKT1, percent inhibited (AKT2 (PKB beta)): 63%; in vitro kinase assay at ten times the IC50 for AKT1, percent inhibited (PI3Kδ): 72%; in vitro kinase assay at ten times the IC50 for AKT1, percent inhibited (SGK (SGK1)): 73%; in vitro kinase assay at ten times the IC50 for AKT1, percent inhibited (PAK3): 83%; in vitro kinase assay at ten times the IC50 for AKT1, percent inhibited (Abl): 42%; in vitro kinase assay at ten times the IC50 for AKT1, percent inhibited (RPS6KB1 (p70S6K)): 64%; in vitro kinase assay at ten times the IC50 for AKT1, percent inhibited (TrkB): 84%; in vitro kinase assay at ten times the IC50 for AKT1, percent inhibited (JAK3): 79%
